Results: article PMC4005663 (Nucleic Acids Research, 2014)

B1: GST–MLV IN NTD–CCD(1–289) (domain or fragment)
chain: IENSSPYTSEHFHYTVTDIKDLTKLGAIYDKTKKYWVYQGKPVMPDQFTFELLDFLHQLTHLSFSKMKALLERSHSPYYMLNRDRTLKNITETCKACAQVNASKSAVKQGTRVRGHRPGTHWEIDFTEIKPGLYGYKYLLVFIDTFSGWIEAFPTKKETAKVVTKKLLEEIFPRFGMPQVLGTDNGPAFVSKVSQTVADLLGIDWKLHCAYRPQSSGQVERMNRTIKETLTKLTLATGSRDWVLLLPLALYRARNTPGPHGLTPYEILYGAPPPLVNFPDPDMTRVTNS
B2: GST–MLV IN CTD(290–408) (domain or fragment)
chain: PSLQAHLQALYLVQHEVWRPLAAAYQEQLDRPVVPHPYRVGDTVWVRRHQTKNLEPRWKGPYTVLLTTPTALKVDGIAAWIHAAHVKAADPGGGPSSRLTWRVQRSQNPLKIRLTREAP
notes: not shown: GST, N-terminal, kept

Target: T1, 6xHis–Brd4(1–720) (human, UniProt O60885 1-720)
T1 construct: not shown: 6xHis, N-terminal, kept
Assay: pull-down
Settings: both partners purified

Row | Binder | Kd [nM]
1 | B1 | > 2000
2 | B2 | 61.2 ± 4.05
